In PMC10397247:

Assays:
Assay in all cases: two-hybrid library CCNG1;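 also: natural log of median RNA to DNA barcode read ratio; higher means stronger binding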
4H3782-bH = molecular target: T1, 4H3782-bH
T1 chain: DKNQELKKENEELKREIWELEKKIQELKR

4H3843-bH = molecular target: T2, 4H3843-bH
T2 chain: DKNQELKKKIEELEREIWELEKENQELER

4H3855-bH = molecular target: T3, 4H3855-bH
T3 chain: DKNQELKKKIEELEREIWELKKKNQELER

4H4001-bH = molecular target: T4, 4H4001-bH
T4 chain: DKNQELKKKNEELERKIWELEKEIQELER

4H454-bH = molecular target: T5, 4H454-bH
T5 chain: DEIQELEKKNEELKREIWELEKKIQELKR

4H462-bH = molecular target: T6, 4H462-bH
T6 chain: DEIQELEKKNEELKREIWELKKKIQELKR

4H568-bH = molecular target: T7, 4H568-bH
T7 chain: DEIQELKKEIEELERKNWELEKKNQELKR

4H607-bH = molecular target: T8, 4H607-bH
T8 chain: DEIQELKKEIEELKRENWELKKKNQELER

4H687-bH = molecular target: T9, 4H687-bH
T9 chain: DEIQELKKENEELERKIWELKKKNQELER

4H717-bH = molecular target: T10, 4H717-bH
T10 chain: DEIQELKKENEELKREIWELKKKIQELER

4H72-bH = molecular target: T11, 4H72-bH
T11 chain: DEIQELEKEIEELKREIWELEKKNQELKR

4H754-bH = molecular target: T12, 4H754-bH
T12 chain: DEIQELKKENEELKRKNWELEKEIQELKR

4H797-bH = molecular target: T13, 4H797-bH
T13 chain: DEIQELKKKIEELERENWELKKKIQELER

4H883-bH = molecular target: T14, 4H883-bH
T14 chain: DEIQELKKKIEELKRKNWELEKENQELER

4H908-bH = molecular target: T15, 4H908-bH
T15 chain: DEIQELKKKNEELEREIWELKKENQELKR

4H918-bH = molecular target: T16, 4H918-bH
T16 chain: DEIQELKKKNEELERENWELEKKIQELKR

4H953-bH = molecular target: T17, 4H953-bH
T17 chain: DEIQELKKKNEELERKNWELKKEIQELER

4H967-bH = molecular target: T18, 4H967-bH
T18 chain: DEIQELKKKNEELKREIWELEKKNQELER

O8-bH = molecular target: T19, O8-bH
T19 chain: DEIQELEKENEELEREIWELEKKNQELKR

O9-bH = molecular target: T20, O9-bH
T20 chain: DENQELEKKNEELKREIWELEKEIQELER

| Binder | interaction score (4H3782-bH) | interaction score (4H3843-bH) | interaction score (4H3855-bH) | interaction score (4H4001-bH) | interaction score (4H454-bH) | interaction score (4H462-bH) | interaction score (4H568-bH) | interaction score (4H607-bH) | interaction score (4H687-bH) | interaction score (4H717-bH) | interaction score (4H72-bH) | interaction score (4H754-bH) | interaction score (4H797-bH) | interaction score (4H883-bH) | interaction score (4H908-bH) | interaction score (4H918-bH) | interaction score (4H953-bH) | interaction score (4H967-bH) | interaction score (O8-bH) | interaction score (O9-bH) |
| --- | --- | --- | --- | --- | --- | --- | --- | --- | --- | --- | --- | --- | --- | --- | --- | --- | --- | --- | --- | --- |
| DKNQELKKENEELKREIWELEKKIQELKR [4H3782-bH] | 0.738 | 0.943 | 0.0378 | 0.67 | 1.75 | 1.71 | 0.164 | 0.717 | 0.418 | 0.481 | 1.04 | 0.775 | -0.446 | -0.532 | -1.78 | -0.854 | -0.497 | -0.136 |  |  |
| DEIQELEKENEELEREIWELEKKNQELKR [O8-bH] |  |  |  |  |  |  |  |  |  |  |  |  |  |  |  |  |  |  | 0.991 | 0.486 |
